The results in this text go back to patent US7105638B1.

The experiment has as its target Example III polypeptide 2 (modified truncated TRP-LE - Asp-Leu hinge - Glu - salmon calcitonin Asp 15 analog) (salmon) (UniProt P01263).

With “S. aureus V-8 protease (from UniProt P0C1U8) (enzyme)”, the completeness of cleavage at the Glu residue amino terminal to calcitonin was > 95%.
